Reference: patent US20210070876A1 (LES LABORATOIRES SERVIER, published 2021)

Columns and labels:
[1] = biological target: T1, His-tagged human CD73 ECD (human, UniProt P21589 27-549); experiment: SEC-MALS, mAb:CD73 1:1
T1 construct: runs as a homodimer of about 124-125 kDa in SEC-MALS; also called CD73-His; CD73-His ECD antigen
T1 sequence: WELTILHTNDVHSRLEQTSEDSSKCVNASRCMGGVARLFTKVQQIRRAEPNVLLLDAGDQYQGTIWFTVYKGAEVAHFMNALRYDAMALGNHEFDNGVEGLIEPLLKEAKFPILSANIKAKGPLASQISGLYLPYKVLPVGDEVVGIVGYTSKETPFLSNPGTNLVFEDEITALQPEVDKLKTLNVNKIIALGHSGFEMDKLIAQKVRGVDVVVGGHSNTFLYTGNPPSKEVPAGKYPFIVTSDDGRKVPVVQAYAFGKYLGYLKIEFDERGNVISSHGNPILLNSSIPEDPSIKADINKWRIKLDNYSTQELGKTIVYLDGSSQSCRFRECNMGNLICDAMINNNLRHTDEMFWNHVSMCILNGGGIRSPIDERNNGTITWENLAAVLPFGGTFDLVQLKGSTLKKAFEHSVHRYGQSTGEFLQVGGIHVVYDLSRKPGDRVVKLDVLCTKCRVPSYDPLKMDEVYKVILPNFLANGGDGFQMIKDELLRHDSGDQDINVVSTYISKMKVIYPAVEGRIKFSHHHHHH
Experimental: (§1) Anti-CD73 antibodies and His-tagged CD73 were analyzed in different ratios as well as individually to analyze the size of complexes formed between CD73 homodimer and anti-CD73 antibodies. Samples were prepared by mixing […] of CD73-His with 900, 450, 90 or 0 μmol of antibody diluted into PBS, pH 7.4. Samples were incubated for 30 min at room temperature followed by separation using a UHPLC UltiMate 3000 (Thermo Scientific) and SEC X-Bridge column (Waters) at a flow rate of 1.2 mL/min. Sample running buffer was 0.01 M Citrate, 250 mM L-Arginine.HCl, pH 6.0. Following HPLC separation, all samples were analyzed using a MiniDAWN TREOS MALS detector (Wyatt) and Optilab T-rEX refractive index detector (Wyatt). Data plots were generated using Graph Pad Prism.

[2] = biological target: T1, His-tagged human CD73 ECD; experiment: SEC-MALS, mAb:CD73 0.1:1
Experimental: as §1

[3] = biological target: T1, His-tagged human CD73 ECD; experiment: SEC-MALS, mAb:CD73 0.5:1
Experimental: as §1

[4] = biological target: T2, human CD73 expressed on cells (human, UniProt P21589 27-549); experiment: flow cytometry on CHO-S cells transiently expressing human CD73, AF647 anti-human IgG (H+L) secondary, GeoMean
T2 construct: also called 5'-NT; human CD73 on CHO-S cells
T2 sequence: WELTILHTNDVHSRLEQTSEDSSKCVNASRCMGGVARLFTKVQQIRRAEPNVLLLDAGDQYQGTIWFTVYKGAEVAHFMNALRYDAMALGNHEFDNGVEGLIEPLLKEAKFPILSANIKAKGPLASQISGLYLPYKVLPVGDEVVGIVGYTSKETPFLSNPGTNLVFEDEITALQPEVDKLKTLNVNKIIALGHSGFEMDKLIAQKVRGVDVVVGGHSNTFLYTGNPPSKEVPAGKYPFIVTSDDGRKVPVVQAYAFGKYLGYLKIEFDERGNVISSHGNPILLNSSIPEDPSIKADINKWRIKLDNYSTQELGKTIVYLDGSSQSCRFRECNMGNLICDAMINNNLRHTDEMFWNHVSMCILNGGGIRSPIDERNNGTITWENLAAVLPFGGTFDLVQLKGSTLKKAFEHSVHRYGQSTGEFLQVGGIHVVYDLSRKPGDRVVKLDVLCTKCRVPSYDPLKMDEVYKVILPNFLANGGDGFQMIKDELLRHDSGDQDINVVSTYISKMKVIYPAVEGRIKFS
Experimental: (§2) The anti-CD73 antibodies were incubated with the hamster CHO-S cell line transiently expressing human or cynomolgus CD73 for 30 minutes at 4° C. The cells were washed twice and subsequently incubated for an additional 20 minutes with AF647-conjugated secondary anti-human IgG (H+L) antibody. After the washing step, antibody binding was detected using the high-throughput flow cytometer iQue Screener PLUS (Sartorius) measuring the GeoMean of AF647 signal in each well. Every concentration was assayed in triplicate and a 12-point titration curve was generated for each antibody.

[5] = biological target: T3, cynomolgus CD73 expressed on cells (cynomolgus monkey (Macaca fascicularis), UniProt A0A2K5V5U7 27-549); experiment: flow cytometry on CHO-S cells transiently expressing cynomolgus CD73, AF647 anti-human IgG (H+L) secondary, GeoMean
T3 construct: whole, on cells; also called cynomolgus CD73 on CHO-S cells; CD73 on Cynom-K1 cells
T3 sequence: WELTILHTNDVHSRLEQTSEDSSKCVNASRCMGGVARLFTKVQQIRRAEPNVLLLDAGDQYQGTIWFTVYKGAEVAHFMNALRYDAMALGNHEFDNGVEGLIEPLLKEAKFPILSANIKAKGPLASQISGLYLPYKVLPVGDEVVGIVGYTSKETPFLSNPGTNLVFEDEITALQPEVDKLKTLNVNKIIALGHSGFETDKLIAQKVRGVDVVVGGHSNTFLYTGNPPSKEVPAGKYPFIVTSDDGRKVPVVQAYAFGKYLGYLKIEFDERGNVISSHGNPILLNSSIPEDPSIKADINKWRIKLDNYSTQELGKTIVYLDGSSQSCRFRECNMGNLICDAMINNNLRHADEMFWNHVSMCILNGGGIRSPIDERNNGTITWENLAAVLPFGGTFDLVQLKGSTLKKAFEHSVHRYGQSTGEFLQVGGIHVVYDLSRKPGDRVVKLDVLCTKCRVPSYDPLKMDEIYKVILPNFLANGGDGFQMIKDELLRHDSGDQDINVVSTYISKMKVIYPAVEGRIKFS
Experimental: as §2

B1: antibody 21127 (antibody, human IgG1, kappa, L234A L235A, V domains shown)
VH: EVQLVESGGGLVQPGRSLRLSCAASGFTFDDFAMHWVRQAPGKGLEWVSGISWNSGNIGYADSVKGRFTISRDNAKNSLYLQMNSLRAEDTALYYCAKDKSGSPYYYYGMDVWGQGTMVTVSS
VL: DIQMTQSPSSVSASVGDRVTITCRATQGISRRLAWYQQKPGKAPKLLIYAASSLQSGVPSRFSGSGSGTDFTLTISSLQPEDFATYYCQQANSFPLTFGGGTKVEIKR
notes: Fully human IgG1-LALA (L234A/L235A), kappa
[1]
  molecular mass of complex, Peak 2 (MW, kDa): 269 kDa
[2]
  molecular mass of complex, Peak 2 (MW, kDa): 282 kDa
[3]
  molecular mass of complex, Peak 2 (MW, kDa): 277 kDa
[4]
  EC50 (read off the curve): ~5 ng/mL
[5]
  EC50 (read off the curve): ~4 ng/mL
